Reference: the supplement of paper PMC12042874
± gives the uncertainty stated by the source.

Test: amyloid nucleation score (Sup35N fusion, yeast selection) (log enrichment); library NNK1; higher = more nucleation; inactive = no reads after selection
Outline: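 Three technical output replicates were used for random libraries. Psi-negative yeast expressing peptides of 20 random codons fused to Sup35N were induced with 100 μM copper sulfate for 24 hours and grown 7 days at 30°C on medium lacking adenine and uracil, and input and output plasmid inserts were Illumina-sequenced, excluding sequences with under 100 input reads. The nucleation score is the DiMSum log enrichment of output over input reads, centred on the mode score of non-aggregating sequences.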

Substance | amyloid nucleation score
SCQSALLRILGSRVSFQARA | -0.192 ± 0.49
SCRLIDWVPSHSRYRTFCCE | -0.386 ± 0.37
SCTFKMMMGSVLL | 4.45 ± 0.067
SCVAVSNNMILPRVSGLFEG | 2.55 ± 0.15
SCVLESIQEFWS | -0.3 ± 0.24
SCYMHVR | 0.372 ± 0.52
SDDRLATCTFCLYSRIKQVK | -0.651 ± 1.7
SDMLK | 0.324 ± 0.43
SDQSPFLIGVPWFVIYNRGG | 1.69 ± 0.11
SDSFLSSYHSFMRDVWV | 0.872 ± 0.58
SDVEEGLRL | 1.08 ± 0.57
SDYIWWRLCGGIKCQGGELG | -1.74 ± 2.1
SDYSLTCMGVYGEGKTRGNL | 0.045 ± 0.32
SECIVFYIPTYKHD | 7.909 ± 0.059
SEFHFMRT | -0.482 ± 1.7
SEHILFLCCMMVGSVVSSAC | inactive
SEKRR | 0.075 ± 0.26
SERTMMSDKLSKRSLPCSLR | -0.717 ± 0.63
SESKGHHKCRRALLYRGM | 0.418 ± 1.2
SEVSISGVVYFDHREVVEV | -0.165 ± 1.4
SEYTLLTFKSFGNRAPHFVG | 1.75 ± 0.19
SFAQLMGGAVSHYVFLPWNA | -0.525 ± 0.85
SFDADFSFRVRVFYDQSISI | -0.035 ± 0.48
SFDKARRARGRSLAWML | 0.072 ± 0.54
SFGANYTLILTVIIQRLADQ | 6.31 ± 0.083
SFGPIVCGFVVKRMWKCNIG | 3.63 ± 0.12

Substance | amyloid nucleation score
SFGTQPGQISVN | -0.856 ± 2.4
SFIDDCP | inactive
SFIFLILMSAWFPFMRVTFG | 0.198 ± 0.64
SFKPSSFKFTIT | -0.605 ± 0.41
SFLLKKKVPWPFFCTCMLVG | -0.575 ± 1.5
SFNKDRKIYTRPELRFMMFL | -0.707 ± 1.7
SFRYFKLSCYFFFLVFAVFF | -1.02 ± 2.4
SFRYVGCWYMARWFS | -0.497 ± 0.3
SFTGVDHSQLNDFSATNNAS | 0.653 ± 0.55
SFTNDSSRSWRHTRLGSCCE | 1.48 ± 0.63
SFVRGFYVNFRFSKGILDMF | -0.082 ± 0.32
SGCCVASFYHRDSILSCEKA | 0.446 ± 0.58
SGCGPNGIRFWVRLEVGNTT | 0.016 ± 0.33
SGCRYSAIVGSPMRCNMYRS | -0.756 ± 2.4
SGMHHHDKARNRG | 1.26 ± 0.59
SGMYSMYQDKT | -0.716 ± 0.5
SGNTGPFRCARAADNSNFKG | -0.922 ± 0.67
SGPGDKVAISMNIY | 5.16 ± 0.087
SGRPLNNVWGVTWEIMRLSL | -0.839 ± 0.86
SGRRTYMLRMLQWVGVIAYR | -2.36 ± 2.4
SGVLVGYHRDLDVDMNLNPM | -0.419 ± 0.4
SGVWNEFEGCWMVDDVIDPL | 0.268 ± 0.44
SGWCGSTFSCERNPTVYSSC | 1.96 ± 0.26
SGYMWMFMSHRNEFRTEVRW | 0.385 ± 0.37
SHGRMCQLEYWSLRKGRGAG | 0.229 ± 0.59
SHIRSWVRSAHAWYIWHGKT | 0.466 ± 0.44

Substance | amyloid nucleation score
SHPVIL | 0.039 ± 0.29
SHREMPSPIGMVSSSFMRVT | 0.539 ± 0.9
SHSTFAVQMRA | 8.273 ± 0.047
SHVVCVCLRDLPRIFVFVEK | 6.63 ± 0.07
SIANNKRTKTVGLMLSCRSS | 3.79 ± 0.14
SIDRIRVSVHPLAFKIYLDV | 0.497 ± 0.43
SIDTPYFALNRCALIHTSFT | 0.825 ± 0.52
SIFRTKTTFLRNVQLEWLGG | -0.211 ± 0.86
SIFWSRTVLLMN | 5.97 ± 0.1
SIGNKYKSIVWYFKCCLANL | 5.97 ± 0.066
SIGPFKTYCTAAWP | -0.502 ± 0.36
SIHGGFYTLPE | 1.15 ± 0.51
SIHVGVSRG | 0.806 ± 0.35
SILSWLFSWTMLEEVI | inactive
SIMSFH | inactive
SIQCKKFGGIWCTDTRSIGP | 1.33 ± 0.33
SIQLMNVFDQVVSQASIKHG | inactive
SIRCLIREKA | -0.238 ± 0.75
SIRLVLRFLTA | -0.166 ± 0.46
SIRMGSEVRSDNEMVMRWQM | 3.67 ± 0.16
SIRSVLFVSTVDDTPPYQGF | inactive
SIRVSDYQRVFNNIGMSNCN | -0.454 ± 0.53
SISNPRSLLYVSRSYNSDEF | -0.956 ± 0.8
SISNTLLGLEEWLPNYVNVF | 0.871 ± 0.49
SITVVSNEFNVVNVILCGCY | 7.009 ± 0.046
SIYCGDTQDVVPIVSHLSNL | 0.187 ± 0.29

Substance | amyloid nucleation score
SKEFPHMYFFGVRFVVVTKV | -0.246 ± 0.45
SKFIYRRLKELFVFGYSIVT | inactive
SKKSSRDLNSTSGRR | -0.808 ± 1.4
SKLMTRVTVWLGSYGRGSWH | 0.629 ± 0.83
SKYRLNAMWSACRQRWANIG | -0.995 ± 1.7
SLCGTS | -0.222 ± 0.46
SLDCWLMGGRTANLVRRLGR | -0.39 ± 0.95
SLDVICPGVYLEMLGRESIL | -0.416 ± 0.84
SLFKNR | 0.171 ± 0.61
SLFLAGIMDIRGWYVVASTP | -0.34 ± 0.54
SLFMDRFNVDVI | -0.107 ± 0.35
SLHSDVRHRRVVYVVREIAY | -0.096 ± 1.1
SLIKLVYWSHARNNCELW | 3.5 ± 0.074
SLIRSMTISDNLIMWAGWTY | -0.7 ± 0.38
SLLNTELQIKAQYDQMSHRR | 0.36 ± 0.44
SLLYSITNVCTLRGRMCCLA | 0.116 ± 0.45
SLMCSPNGDESRQWNPRARQ | inactive
SLMGALEIQRCSAFSSFLFR | 1.32 ± 0.41
SLMIDRTRLGGN | 0.769 ± 0.17
SLMRPCKCNAYCMIELITLY | inactive
SLMSLLLNFVNLTNNNLSPF | -2.99 ± 1.6
SLNREYVYKRGGVREWCRYL | 0.856 ± 0.59
SLPQKGIHWRQYL | 0.368 ± 0.61
SLQAIGNWYHD | 0.038 ± 0.6
SLRSPWDRCSFRHFLPFFTM | -0.735 ± 0.69
SLRVTLTGQTDLASEFQWWL | inactive

Substance | amyloid nucleation score
SLSCTTLCLEYYRYCVRTYG | 0.196 ± 0.7
SLSMSRIQMHNRYKPGTQFD | 1.07 ± 0.46
SLSTVNRKAV | -0.637 ± 0.57
SLTVLCKVFFSCNQAGLLHG | 0.17 ± 0.5
SLVPVYI | 0.167 ± 0.35
SLVVEMVNYE | -0.039 ± 0.29
SMAIVDRWLMQGSSQPAGS | 0.702 ± 0.53
SMFNQRWWVSPVVYGLIVWP | 1.33 ± 0.79
SMGLYRDLRLKCFC | 1.02 ± 0.47
SMMKRVTAVVNVFYRFDIKA | inactive
SMSPTDICYWCLYHSAYIRD | 1.55 ± 0.3
SMVYAYAAIILGWWNWGRGC | 0.003 ± 1.1
SMWVWMHICEAMG | 4.6 ± 0.11
SNFHRNVYRGYRV | inactive
SNFVALYDRYNCFSVCIYCG | 5.78 ± 0.063
SNIREPDFRCIGLATF | 0.523 ± 0.7
SNISSHQEASWRAYRFSESV | 0.147 ± 0.57
SNLHNCLRGNGCWVIAIDVV | -0.251 ± 0.81
SNLVCII | 0.211 ± 0.59
SNTRFSCRSPWVCTFFVREV | 0.085 ± 0.52
SNVICRGR | 1.41 ± 0.31
SPAMYPHNSRFLMYITSFMQ | 1.08 ± 0.72
